Test results: the nanobody polyreactivity screen of Harvey et al. (2022)

Test: yeast display, Sf9 membrane polyspecificity reagent, FACS + sequencing; frameworks hold sequencing errors
Procedure, shortened: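 A nanobody's polyreactivity label depends on the gate it was sorted from. Yeast display cells were stained with 10% biotinylated, detergent-solubilized Sf9 membrane reagent for 1 hour at 4 °C, enriched on streptavidin microbeads and sorted by FACS. The low and high (top ~1%) gates were set on anti-HA fluorescence for expression and streptavidin fluorescence for reagent binding.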

| Sequence | polyreactivity (PSR sort gate) |
| --- | --- |
| QVQLVESGGGLVQAGGSLRLSCAASGLTLYQYSMGWYRQAPGKERELVAAIPTSGSTYFADSVKGRFTISRDNAKNTVYLQMNSLKPEDTAVYYCAADVYYVDTLSGYRYGYDYWGQCTQVTVSS | low polyreactivity |
| QVQLVESGGGLVQAGGSLRLSCAASGLTLYRYALGWYRQAPGKERELVAAISWGGGSTYYADSVKGRFTISRDNAKNTVYLQMNSLKPEDTAVYYCAAGRLLYIPRYYYWGQGTQVTVSS | high polyreactivity |
| QVQLVESGGGLVQAGGSLRLSCAASGLTSVRNAMGWYRQAPGKERELVAGISWSGGRTYYADSVKGRFTISRDNAKNTVYLQMNSLKPEDTAVYYCNKVRAYYTQEGSWGQGTQVTVSS | high polyreactivity |
| QVQLVESGGGLVQAGGSLRLSCAASGLYAMGWYRPAPGKERELVADINSSGGSITNYADSVKGRFTISRDNAKNTVYLQMISLKPEDTAVYYCAKRGPYFAYDYWGQGTQVTVSS | low polyreactivity |
| QVQLVESGGGLVQAGGSLRLSCAASGMGWYRQAPGKERELVATITTGGTYADSVKGRFTISRDNAKNTVYLQMNSLKPEDTAVYYCAADGLGSVYYLRYNYWGQGTQVTVSS | low polyreactivity |
| QVQLVESGGGLVQAGGSLRLSCAASGMIFKYYVMGWYRQAPGKERELVAAIRWSGGITSYADSVKGRFTISRDNAKNTVYLQMNSLKPEDTAVYYCAVAHSRLRTAYTFSVQRYDYWGQGTQVTVSS | low polyreactivity |
| QVQLVESGGGLVQAGGSLRLSCAASGMTFTDYAMGWYRQAPGKERELVAAISRSGGTTYYADSVKGRFTISRDNAKNTVYLQMNSLKPEDTAVYYCAARVTPGRNGGGYWGQGTQVTVSS | high polyreactivity |
| QVQLVESGGGLVQAGGSLRLSCAASGNAMGWYRQAPGKERELVASINRSGGRTYFADSVKGRFTISRDNAKNTVYLQMNRLIPEDTAVYYCAKGPRGADLTHGAYVEMEYWGQGTQVTVSS | low polyreactivity |
| QVQLVESGGGLVQAGGSLRLSCAASGNAMGWYRQAPGKERELVASINRSGGSTYYADSVKGRFTISRDNAKNTVYLQMNSLIPEDTAVYSCNTDVGATVEDDYWGQGTQVTVSS | low polyreactivity |
| QVQLVESGGGLVQAGGSLRLSCAASGNAMGWYRQAPGNERELVAAITRRGGSTYYADSVKGRFTISRDNAKNTVYLQMNSLKPEDTAVYYCAADNPSYNLWYGYWGQGTQVTVSS | low polyreactivity |
| QVQLVESGGGLVQAGGSLRLSCAASGNIFATYAMGWYRHAPGKEREFVAAITSRGGGTFYADSVKGRFTISRDNAKNTVYLQMNSLKPEDTAVYYCAARRSGHWLYGYWGQGTQVTVSS | high polyreactivity |
| QVQLVESGGGLVQAGGSLRLSCAASGNIFCINTMGWYRQAPGKERELVAAIDASDGSTYYADSVKGRFTISRDNAKNTVYLQMNSLKPEDTAVYYCATRSGYDSVYYFYTLWYYYWGQGTQVTVCS | low polyreactivity |
| QVQLVESGGGLVQAGGSLRLSCAASGNIFDEYTMGWYRQAPGKERELVAAINSGGSTDYADSVKGRFTISRDNAKNTVYLQMNSLKPEDTAVYYCARDVWPTKIQLQPGYGRGEYWGQGTQVTVSS | low polyreactivity |
| QVQLVESGGGLVQAGGSLRLSCAASGNIFDEYTMGWYRQAPGKERELVAAISWRGGSTYYADSVKGRFTISRDNAKNTVYLQMNSLKPEDTAVYYCNKAYPADYDYWGQGTQVTVSS | low polyreactivity |
| QVQLVESGGGLVQAGGSLRLSCAASGNIFDEYTMGWYRQAPGKERELVAGISWSGSHTYYADSVKGRFTISRDNAKNTVYLQMNSLKPEDTAVYYCIADSYPDYTGPGLDWYDYWGQGTQVTVSS | low polyreactivity |
| QVQLVESGGGLVQAGGSLRLSCAASGNIFDGYAMGWYRQAPGKERELVAAISLSGGSTNYADSVKGRFTISRDNAKNTVYLQMNSLKPEDTAVYYCNARNWYYEGDYWGQGTQVTVSS | high polyreactivity |
| QVQLVESGGGLVQAGGSLRLSCAASGNIFDHYAMGWYRQAPGKEREMVAAISSGGSTSYADSVKGRFTITRDNAKTTVYVQMNCLKPEDTAVYYCAAESFVQYKSPKWVHRYDSWGQGTQVTVSS | low polyreactivity |
